Key:
[1] = target: digested β-vignin (β-vignin incubated 30 h with the 6 d.a.i. germinating cowpea seed extract): 27 kDa core with the proteolytic products that stay with it (Vigna unguiculata (cowpea)); experiment: SEC; Superdex 75 10/300 GL, 25 mM phosphate buffer pH 7.0, 150 mM NaCl; β-vignin digested 30 h with the 6 d.a.i. extract, 50 μg loaded; eluted fractions on SDS-PAGE (silver stained); digest not purified from the extract
[2] = target: native β-vignin, the vicilin (7S globulin) storage protein of cowpea (Vigna unguiculata) seeds (Vigna unguiculata (cowpea)); experiment: SEC; Superdex 200 10/300 GL, 25 mM Tris-HCl pH 9.0, 150 mM or 300 mM NaCl; 50 μg β-vignin (0.5 mg/mL) loaded
[3] = target: native β-vignin, the vicilin (7S globulin) storage protein of cowpea (Vigna unguiculata) seeds (Vigna unguiculata (cowpea)); experiment: SEC; Superdex 75 10/300 GL, 25 mM phosphate buffer pH 7.0, 150 mM NaCl, 0.5 mL/min; peak areas by Multiple Peak Fit; monomer to trimer

Row | percent monomer [1] | percent trimer [1] | stoichiometry N [2] | percent monomer [3] | percent trimer [3] | Substance
1 | 90.2% | 9.8% |  |  |  | digested β-vignin (β-vignin incubated 30 h with the 6 d.a.i. germinating cowpea seed extract): 27 kDa core with the proteolytic products that stay with it (complex)
2 |  |  | 3 | 80% | 20% | native β-vignin, the vicilin (7S globulin) storage protein of cowpea (Vigna unguiculata) seeds (natural protein)
